Source: PMC12270161

Key:
P03420 = test: SEC; Superdex 200 Increase 10/300 GL, antigens (40 ug) in PBS; percent of total antigen in aggregate, trimer and monomer fractions by area under the curve
[1] = biological target: hMPV Fsol (non-stabilised soluble hMPV F, post-fusion control) (human metapneumovirus (hMPV)); test: as above
[2] = as above
[3] = biological target: hMPV F DsCavEs2 (pre-fusion stabilised comparator with foldon) (human metapneumovirus (hMPV) | bacteriophage T4); test: as above
[4] = biological target: RSV F DsCav1 (pre-fusion stabilised comparator with foldon) (respiratory syncytial virus (RSV) | bacteriophage T4) (UniProt P03420); test: as above

In the case of “RSV F DsCav1 (pre-fusion stabilised comparator with foldon)”, the “percent trimer (SEC, area under curve)” value (P03420) is reported as “RSV DSCav1, 69% trimer”.
For “hMPV Fsol (non-stabilised soluble hMPV F, post-fusion control) (domain or fragment)”, the stoichiometry N [1] was 3.
For “hMPV F DsCavEs2 (pre-fusion stabilised comparator with foldon)”, the “percent trimer (SEC, area under curve)” value [2] was “hMPV DSCavEs2, 54% trimer” and the stoichiometry N [3] was 3.
For “hMPV Fsol (non-stabilised soluble hMPV F, post-fusion control)”, the “percent trimer (SEC, area under curve)” value [2] was “hMPV Fsol, 25% aggregate, 19% trimer, 56% monomer”.
“RSV F DsCav1 (pre-fusion stabilised comparator with foldon) (from UniProt P03420 26-524)” showed a stoichiometry N [4] of 3.
